Source: the nanobody polyreactivity screen of Harvey et al. (2022)

Assay: yeast display, Sf9 membrane polyspecificity reagent, FACS + sequencing; frameworks hold sequencing errors
Summary of the method: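 Sorting gates, low and high (top ~1%), were placed on anti-HA fluorescence to track expression and on streptavidin fluorescence to track reagent binding. A clone's polyreactivity label is taken from the gate it came out of. The reagent was 10% biotinylated, detergent-solubilized Sf9 membrane, applied for 1 hour at 4 °C to galactose-induced yeast display cells.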

With “QVQLVESGGGLVQAGGSLRLSCAASGSTFYPYTMGWYRQAPGKERELFAAITSGGNTNYADSVKGRFTISRDNAKNTVYLQMNSLKPEDTAVYYCNAEPEGTTGNYFPYDYWGQGTQVTVSS” the “polyreactivity (PSR sort gate)” value was “low polyreactivity”.
With “QVQLVESGGGLVQAGGSLRLSCAASGSTFYPYTMGWYRQAPGKERELVAAITSGGNTNYADSVKGRFTISRDNAKNTVYLQMNSLKPEDTAVYYCNAEPEGTTGNYFPYDYWGQGTQVTVSS” the “polyreactivity (PSR sort gate)” value was “low polyreactivity”.
For “QVQLVESGGGLVQAGGSLRLSCAASGSTFYQNAMGWYRQAPGKEMELVAAISSSGRTYYADSVKGRFTISRDNAKNTVFLQMNSLKPEDTAVYYCAFGAYGSLYSIRVAYGRMDYWGQGTQVTVSS”, the “polyreactivity (PSR sort gate)” value was “high polyreactivity”.
For “QVQLVESGGGLVQAGGSLRLSCAASGSTFYQYAMGWYRQAPGKERELGAAITRSGGSTYYADSVKGRFTISRDNAKNTVYLQMNSLKPEDPAVYYCAADRARRGIRDYYWGQGTQVTVSS”, the “polyreactivity (PSR sort gate)” value was “high polyreactivity”.
With “QVQLVESGGGLVQAGGSLRLSCAASGSTFYQYVMGWYRQAPGKERELVAAISGSGGSTYYADSVKGRFTISRDNAKNTVYLQMNSLKPEDTAVYYCAAVGRSKRDGYWGQGTQVTVSS” the “polyreactivity (PSR sort gate)” value was “high polyreactivity”.
With “QVQLVESGGGLVQAGGSLRLSCAASGSTFYRFAMGWYRTAPGKERELVAAISRSGGSTYYADTVKGRFTISRDNAKNTVYLQMNSLKPEDTAVYYCAAQYTFYYRSWSDYWGQGTQVTVSS” the “polyreactivity (PSR sort gate)” value was “high polyreactivity”.
In the case of “QVQLVESGGGLVQAGGSLRLSCAASGSTFYRNAMGWYRQAPGKERELVAAIRKTGGSTHYADSVKGRFTISRDNAKNTVYLQMNSLKPEDTAVYYCNATYIYGWYNYWGQGTQVTVSS”, the “polyreactivity (PSR sort gate)” value is reported as “low polyreactivity”.
For “QVQLVESGGGLVQAGGSLRLSCAASGSTFYRNAMGWYRQAPGKERELVAGISWRGGSTYYADSVKGRFTISRDNAKNTVYLQMNSLKPEDTAVYYCNTLGAGGYSSPADYYYWGQGTQVTVSS”, the “polyreactivity (PSR sort gate)” value was “high polyreactivity”.
In the case of “QVQLVESGGGLVQAGGSLRLSCAASGSTFYRNAMGWYRQAPGKERELVATINRGGSTYYADSVKGRFTISRDNAKNTVYLQRNSLNPEDTAVYYCAKDSYYAGRFIYTPRAKYGYWGQGTQVTVSS”, the “polyreactivity (PSR sort gate)” value is reported as “high polyreactivity”.
In the case of “QVQLVESGGGLVQAGGSLRLSCAASGSTFYRNARAWYRQAPGKERELVAGISYGGGSTYYADSVKGRFTISRDNAKNTVYLQMNSLKPEDTAVYYCNAVWVKRHYYYWGQGSQVTVSS”, the “polyreactivity (PSR sort gate)” value is reported as “low polyreactivity”.
With “QVQLVESGGGLVQAGGSLRLSCAASGSTFYRNTMGWYRQAPGKERELVAAISRTGASTHYADSVKGRFTISRDNAKNTVYLQMNSLKPEDTAVYYCNAVPAIGKYYGGGYWGQGTQVTVSS” the “polyreactivity (PSR sort gate)” value was “high polyreactivity”.
For “QVQLVESGGGLVQAGGSLRLSCAASGSTFYRYAKGRYRQPPGKERELVASITRNVGSTYYADSVKGRFTISRDNAKNTVYLQMKSVKPEDTAVYFCAAKSGSFVHGGYQTPVYGSDYWGQGSQVTVSS”, the “polyreactivity (PSR sort gate)” value was “high polyreactivity”.
With “QVQLVESGGGLVQAGGSLRLSCAASGSTFYRYAMGWYRQAPGKERELVAAISNSGGSTNYADSVKGRFTISRDNAKNTVYLQMNSLKPEDTAVYYCAADPYDLVWVEDYDYWGQGTQVTVSS” the “polyreactivity (PSR sort gate)” value was “high polyreactivity”.
For “QVQLVESGGGLVQAGGSLRLSCAASGSTFYRYAMGWYRQAPGKERELVAAISSSGGSTYYADSVKGRFTISRDNAKNTVYLQMNSLKPEDTAVYYCNAAYRVRRFDYWGQGTQVTVSS”, the “polyreactivity (PSR sort gate)” value was “low polyreactivity”.
With “QVQLVESGGGLVQAGGSLRLSCAASGSTFYRYAMGWYRQAPGKERELVAAITWNGGSTYYADSVKGRFTISRDNAKNTVYLQMNSLKPEDTAVYYCNKVSRRDTYEYDYWGQGTQVTVSS” the “polyreactivity (PSR sort gate)” value was “high polyreactivity”.
In the case of “QVQLVESGGGLVQAGGSLRLSCAASGSTFYRYAMGWYRQAPGKERELVARITQNGGSTYYADSVKGRFTISRDNAKNTVYLQMNSLKPEDTAVYYCADRWISVLSYGKYDYWGQGTQVTVSS”, the “polyreactivity (PSR sort gate)” value is reported as “high polyreactivity”.
For “QVQLVESGGGLVQAGGSLRLSCAASGSTFYRYDMGWYRQAPGKERELVAAITSVGSTKYADSVKGRFTISRDNAKNTVYLQMNSLKPEDNAVYYCNVDYIDWGQWYTNYPLSGYDYWGQGTQVTVSS”, the “polyreactivity (PSR sort gate)” value was “low polyreactivity”.
In the case of “QVQLVESGGGLVQAGGSLRLSCAASGSTFYRYMGWYRQAPGKERELVADISSSGDTYYADSVKGRFTISRDNAKNTVYLQMNSLKPEDTAVYYCAADVSVGYWWSYSMDYWGQGTQVTVSS”, the “polyreactivity (PSR sort gate)” value is reported as “high polyreactivity”.
With “QVQLVESGGGLVQAGGSLRLSCAASGSTFYRYTMGWYRQAPGKERELVAAISRSGGRTYYADSVKGRFTISRDKAKNTVSVQMNSLKPEDTAVYYCAAARRYGRYFGYPMEYWGQGTQVTVTS” the “polyreactivity (PSR sort gate)” value was “high polyreactivity”.
In the case of “QVQLVESGGGLVQAGGSLRLSCAASGSTFYSNAMGWYRQAPGKERELVAGISGSGGSSYYADSVKGRFTFSRDNAKNTVKLQMNSLKPEDTAVYYCNARKTRSYFRFDSWGQGTQVTVSS”, the “polyreactivity (PSR sort gate)” value is reported as “low polyreactivity”.
For “QVQLVESGGGLVQAGGSLRLSCAASGSTFYSNAMGWYRQAPGKERELVARISWIGTSTYYADSVKGRFTISRDNAKNTVYLQMNSLKPEDTAVYDCAAGTVGPRRRRYIWLDYWGQGTQVTVSS”, the “polyreactivity (PSR sort gate)” value was “high polyreactivity”.
In the case of “QVQLVESGGGLVQAGGSLRLSCAASGSTFYSYAMGWYRQAPGKEREFVAAITDSGGSTYYADSVTGRFTISRDNAKNTVYLQMNSLKPEDTAVYYCAKRQYQSYIRGPYYYWGQGTQVTVSS”, the “polyreactivity (PSR sort gate)” value is reported as “low polyreactivity”.
With “QVQLVESGGGLVQAGGSLRLSCAASGSTFYSYAMGWYRQAPGKERELVAAISWDGGRTYYADSVKGRFTISRDNAKNTVYLQMNSLKPEDTAVYYCSADYPTYRHYYWGQGTQVTVSS” the “polyreactivity (PSR sort gate)” value was “low polyreactivity”.
In the case of “QVQLVESGGGLVQAGGSLRLSCAASGSTFYSYAMGWYRQAPGKERELVAAISWRGGSTYYADSVKGRFTISRDNAKNTVYLQMNSLKPEDPEVYYCAAYRGDGYEYWGQGTQVTVSS”, the “polyreactivity (PSR sort gate)” value is reported as “high polyreactivity”.
For “QVQLVESGGGLVQAGGSLRLSCAASGSTFYSYAMGWYRQAPGKERELVAAITSGGSTNYADSVKGRFTISRDNAKNTVYLQMNRLKPEDTAVYYCARKYWHRSYGYDYWGQGTQVTVSS”, the “polyreactivity (PSR sort gate)” value was “low polyreactivity”.
With “QVQLVESGGGLVQAGGSLRLSCAASGSTFYSYAMGWYRQAPGKERELVAAITYSDGDTYYADSVKGRFTISRDNAKNTVYLQMNSLKPEDTAVYYCAAEYQGQPGTGNLEYWGQGTQVTVSS” the “polyreactivity (PSR sort gate)” value was “low polyreactivity”.
For “QVQLVESGGGLVQAGGSLRLSCAASGSTFYSYAMGWYSQAPGKERELVARIRWSGYTYSADSVKGRFTISRDNAKNTVYLQMNSLKPEDTAVSYCAAKRGFHIADYWGQGTQVTVSS”, the “polyreactivity (PSR sort gate)” value was “high polyreactivity”.
For “QVQLVESGGGLVQAGGSLRLSCAASGSTFYTNAMGWSRQAPGKQREFVAALSGRGSNTYYADSVKGRFTISRYNAKNTVYLQMNSLKPEDTAVYYCAARRLAGFGYWGQGTQVTVSS”, the “polyreactivity (PSR sort gate)” value was “high polyreactivity”.
In the case of “QVQLVESGGGLVQAGGSLRLSCAASGSTFYTNAMGWYRQAPGKERELVAAISYSGGGTYYADSVKGRFTISRDNAKNTVYLQMNSLKPEDTAVYYCAADTLQRAFVLYDYWGQGTQVTVSS”, the “polyreactivity (PSR sort gate)” value is reported as “high polyreactivity”.
In the case of “QVQLVESGGGLVQAGGSLRLSCAASGSTFYTNDMGWYRQAPGKERELVAAITSAGNTNYADSVKGRFTISRDNAKNTVYLQMNSLKPEDTAVYYYYYYQYDYWGQGTQVTVSS”, the “polyreactivity (PSR sort gate)” value is reported as “low polyreactivity”.
For “QVQLVESGGGLVQAGGSLRLSCAASGSTFYTYAMGWYRQAPGKERELVAAISWRTGSTYYADSVKGRFTISRDNAKNTVYLQMNSLKPEDTAVYYCATDYYIDTWDWYEEYEYWGQGTQVTVSS”, the “polyreactivity (PSR sort gate)” value was “high polyreactivity”.
